The target in the data set is Nucleolin 284-710 (UniProt P19338 284-710). Put plainly: EMSA; 100 mM KCl; EMSA: oligo folded in binding buffer (composition not given) + 100 mM KCl, 37 C 1 h; nucleolin 100 ng, 4 C 2 h, 8% native gel + 100 mM KCl at 4 C; BG4 37 C 30 min, 6% native gel + 100 mM KCl at RT; CD: 1x PBS + 100 mM KCl. The following applies: protein: recombinant, tags: His, label: 5'-32P (EMSA). (In EMSA bound probe runs differently from free probe, usually more slowly.)
Chain of Nucleolin 284-710 (P19338 284-710): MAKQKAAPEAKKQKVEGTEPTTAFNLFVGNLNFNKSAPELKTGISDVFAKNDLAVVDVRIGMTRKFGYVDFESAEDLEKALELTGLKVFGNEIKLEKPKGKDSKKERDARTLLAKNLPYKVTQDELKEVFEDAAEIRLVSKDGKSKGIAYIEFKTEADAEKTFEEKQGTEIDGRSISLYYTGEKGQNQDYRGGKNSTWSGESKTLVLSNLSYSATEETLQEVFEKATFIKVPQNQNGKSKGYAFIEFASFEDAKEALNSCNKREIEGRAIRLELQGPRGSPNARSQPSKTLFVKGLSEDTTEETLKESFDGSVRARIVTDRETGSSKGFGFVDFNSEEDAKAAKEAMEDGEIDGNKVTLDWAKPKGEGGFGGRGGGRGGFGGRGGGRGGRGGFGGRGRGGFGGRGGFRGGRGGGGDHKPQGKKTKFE

Turning to GCTCCGCCCCGCGCCCCCGGAAACCTCC (ssDNA) [KD53 (C-rich reverse complement of KD52)], the binding result (single strand) is on record as “no binding”.

In the case of GGAGGTTTCCGGGGGCGCGGGGCGGAGC (structured_DNA) [KD52 (SHOX G-rich strand)], the binding result (intramolecular parallel G4, two G stretches plus GNG motifs) is “binds”.

These data come from article PMC4945072, “GNG Motifs Can Replace a GGG Stretch during G-Quadruplex Formation in a Context Dependent Manner”.
